Results on 3 molecules are retold here after patent US20220332770A1 (UNIVERSITY OF RHODE ISLAND BOARD OF TRUSTEES, published 2022).

Experiment [1] concerns the target murine TLR5 (HEK293 cells co-transfected with murine TLR5 and SEAP reporter gene) (murine) (UniProt Q9JLF7). Briefly: cell-based or functional assay.
The target of experiment [2] is murine TLR5 (HEK293 cells co-transfected with murine TLR5 and SEAP reporter gene) (murine, UniProt Q9JLF7 27-859). Description: cell-based or functional assay.
murine TLR5 (HEK293 cells co-transfected with murine TLR5 and SEAP reporter gene), sequence (Q9JLF7 27-859): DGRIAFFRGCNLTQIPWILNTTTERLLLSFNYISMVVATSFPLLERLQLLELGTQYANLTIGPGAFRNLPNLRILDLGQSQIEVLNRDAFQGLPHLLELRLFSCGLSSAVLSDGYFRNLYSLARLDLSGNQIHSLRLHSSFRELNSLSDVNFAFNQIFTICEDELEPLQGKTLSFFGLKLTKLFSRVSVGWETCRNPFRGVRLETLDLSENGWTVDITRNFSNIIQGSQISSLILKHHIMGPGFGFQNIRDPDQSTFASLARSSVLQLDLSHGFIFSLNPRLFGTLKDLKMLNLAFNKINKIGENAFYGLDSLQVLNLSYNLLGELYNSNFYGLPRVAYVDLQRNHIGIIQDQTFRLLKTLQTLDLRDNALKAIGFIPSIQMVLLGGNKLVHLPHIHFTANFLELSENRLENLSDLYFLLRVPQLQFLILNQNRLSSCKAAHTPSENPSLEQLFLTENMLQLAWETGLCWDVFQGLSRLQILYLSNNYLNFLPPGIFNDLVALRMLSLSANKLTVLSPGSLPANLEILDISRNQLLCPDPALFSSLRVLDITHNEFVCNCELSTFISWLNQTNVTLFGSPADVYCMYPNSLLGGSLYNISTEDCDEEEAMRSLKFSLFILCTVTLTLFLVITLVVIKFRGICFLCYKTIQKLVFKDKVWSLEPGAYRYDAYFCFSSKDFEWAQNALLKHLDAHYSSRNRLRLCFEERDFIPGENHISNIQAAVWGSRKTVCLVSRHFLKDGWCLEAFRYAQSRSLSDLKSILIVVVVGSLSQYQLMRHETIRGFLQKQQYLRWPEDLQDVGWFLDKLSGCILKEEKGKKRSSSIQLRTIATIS

murine TLR5 (HEK293 cells co-transfected with murine TLR5 and SEAP reporter gene) (murine), sequence (Q9JLF7 27-859): as above

In experiment [1], “Recombinant FljB (phase 2 flagellin of S. Typhimurium strain LT2) (from UniProt P52616 1-506) (ligand)” had a lowest concentration to significantly activate TLR5 (SEAP reporter, OD620nm) of 8 pM.
Take “FLA-ST (ultrapure FliC purified from S. Typhimurium, Invivogen) (from UniProt P06179 2-495) (ligand)”: in experiment [1], the lowest concentration to significantly activate TLR5 (SEAP reporter, OD620nm) was determined as 40 pM.

B1: FljB-HBc fusion protein, self-assembled into FH VLPs (other)
chain: MDIDPYKEFGASVELLSFLPSDFFPSIRDLLDTASALYREALESPEHCSPHHTALRQAILCWGELMNLATWVGSNLEDPAGGGGSGGGGSAQVINTNSLSLLTQNNLNKSQSALGTAIERLSSGLRINSAKDDAAGQAIANRFTANIKGLTQASRNANDGISIAQTTEGALNEINNNLQRVRELAVQSANSTNSQSDLDSIQAEITQRLNEIDRVSGQTQFNGVKVLAQDNTLTIQVGANDGETIDIDLKQINSQTLGLDSLNVQKAYDVKDTAVTTKAYANNGTTLDVSGLDDAAIKAATGGTNGTASVTGGAVKFDADNNKYFVTIGGFTGADAAKNGDYEVNVATDGTVTLAAGATKTTMPAGATTKTEVQELKDTPAVVSADAKNALIAGGVDATDANGAELVKMSYTDKNGKTIEGGYALKAGDKYYAADYDEATGAIKAKTTSYTAADGTTKTAANQLGGVDGKTEVVTIDGKTYNASKAAGHDFKAQPELAEAAAKTTENPLQKIDAALAQVDALRSDLGAVQNRFNSAITNLGNTVNNLSEARSRIEDSDYATEVSNMSRAQILQQAGTSVLAQANQVPQNVLSLLRGGGGSGGGGSSRELVVSYVNVNMGLKIRQLLWFHISCLTFGRETVLEYLVSFGVWIRTPPAYRPPNAPILSTLPETTVVLEHHHHHH
As to B1, in experiment [2], the “fold reduction of TLR5 activation ability against FLA-ST” value came to 25 fold and the “fold reduction of TLR5 activation ability against FljB” value is > 100 fold.
